Reference: the domain aggregation screens of Martell et al. (2025)

Assay: soluble fraction after stress (log2 fold change); higher = more stays soluble; pooled small domains, quantitative proteomics
Conditions: stress: 75 degC
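Note: 20 min heating vs room temperature control held 20 min.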

Row | Sequence | soluble fraction (log2)
1 | HMSDAQIKASINDLWFKYNLETFAKLNLNVNQGRVLVTGIVQNPEHRLEAIRLVWTVDGVQQVINEIQVAE | -2.33
2 | HMSDDIPVHYRLDVNDAARALKLLTDNGFSAETAESGLNVYMTRLQSAEAARLLVENNIAVYGLTAV | -0.297
3 | HMSDDLIILGYSMLNNALKAFHIDPDSIKKKHWDKLAQDYHLKNKNQILTDIALGKRVNIMVAHQLTTIMD | -0.738
4 | HMSDDSYLVALAEAYKNATSWDIRRQVLSIMTGVSSYKEISRYIPGLTQYRLSISNLHRLQYGRAAPVP | 0.0264
5 | HMSDEAGKVLQLLRENGGYLPYNDRSDPEDIYAFFSMSKKTFKMTAGNLYKQKKIIFTNTGIKLTE | -3.51
6 | HMSDEVNTDKAFRAIDSTLNRNVKGIAPRDHTLLRNTMITYFKSNDYIDYDTMIQSTLENYKPTELEQDKM | 0.0497
7 | HMSDGHLIKVLEVLDGGEAFLGRTANGGTARFSLGQLADIRRGSVVFVSEDRWEVVPDSAWPEI | -1.1
8 | HMSDGIPDLRNLNFLSPQEGDYLNESDRVFGVTINGDGQAYPLRIVNAHEMVNDTLGGEPISLM | 0.124
9 | HMSDHKNANFTKVVKVAQELLQDEDDKAGITPTLIEEKISAVLAMNRRWAEGLDRAAVADELIRRFSIW | -0.847
10 | HMSDIATLVPGPTDAELAASALRGLDAALDADTPVRLSLGEPGGEVEVPRSVLAALARVLDSFAHGEGVTL | -0.0408
11 | HMSDIISEIESQVMFKLATYEITNATEKMIEALINSEINDRRTLGFPIPNEQGRIFLVRSIQNKLAV | -2.77
12 | HMSDIIVQGNRRLDTDLIITDSQIREIGTDEKSLSLAVKNLYKTGYFENVQIFKDNSVVFINVKENQ | -0.618
13 | HMSDIQKGTQINLVNEPLYVSSKTSIVSTYKTGTYYTWGFEANNRIAITNKLENIGVKGQVTGWINKP | -1.73
14 | HMSDKFNALWIILNKLDKKEKVTARSLMEDLEVSERSVYRYITTLQVAGFPVDYDRAVNSYVFSDGYTLK | -4.11
15 | HMSDKLTLPVQINGVFRYTIEINPSMQKDEIIDLVKNEERTAKYKQDKEIKNVIVVPGKIVNIII | -0.339
16 | HMSDLPLLEHARQNLSDDEFRILELTTIYGYRRVEVAKMLGEPISTINWKYNKLIKKVKTFYGEVYN | -0.998
17 | HMSDLVATKEQVVEAYKYGLGLGLDNSTLKMLLFDIRGEDVADQDKISDGMTVSEIEIWKEGMRTIAEEYL | -0.5
18 | HMSDMIGQNIRRLRTEKQMTQKALADKLFVTAQAVSRWENGEVEPSLSTVTEIARIFNVSADEILGI | -0.228
19 | HMSDPDPAEQALLRQFMTRYAAYRRRGQHPAGAFRTASLEVFGQEPSGDLRDVIVDLESGLV | -0.234
20 | HMSDPELNDNEKKIYDIIFNKKSMDLTELKNLSELSNKQWDKGIKSLSKQDFVKVIKTEEALIVELV | -0.509
21 | HMSDPSAQADALFNEGKTAEAFNVLLRLIEDSPEDQREDYRVRLLDLFRIAGNTPEVKAARRRLSALLM | -0.237
22 | HMSDRFVRIVMNDGTVKLGQMISEDADFIRLKTNNLGELNIPKYLVLDMMDLTRSEYVRLSISNAG | -0.282
23 | HMSDSAFAEMRRELEALRNSNAEYERALSNFFPEAEDKALAAEAFYQNREYDELVAEREEANVIDGLKR | -0.198
24 | HMSDSISLTLNGDLRRFRAHATIADLVRDIGLDPVKVAVERNLEIVSRSTLEDVVLADGDRLEIVHFV | -2.23
25 | HMSDSLVLTGVAYVDGKPVVTLFDKVKKESLVVTDQPNLKGWTLVEATQSSDIKRATAKVNIGGEPVSIRY | -0.0165
26 | HMSDTFENILQRLIKATGRKNASEMANALGLSPQSVYSAKTKGKIPPAWIFAAAERFNASADWIYFGY | -1.5
27 | HMSDTSAIEKIIDEVLSDESSQKAINDIKNGNEKVYGFLVGQVMKKSQGKANPGLVQKMLREKIAK | 0.116
28 | HMSDYKSALQEAVQTNKQSIEYVLIKESGPAHNKTFTFEVRIDNISYGVGTAKSKKEAEQIAAKDALDKLV | -0.0877

Row | Sequence | soluble fraction (log2)
29 | HMSDYVLLYSGLNTSDTTFLAYSFQEKGIRYKMPNPDEIEVRVQDVDQARRIAAGAQLGGQVS | -0.536
30 | HMSEEGTIPDVSGQDEASAQKALENAGFTNIKSEAVYSEEEQGTVIDTNPTAGTKVSKDTEITMQVSKGSE | 0.248
31 | HMSEEKLVFSIPDDIETMRIDKAIALETHLSRAQIAELFKENKILLNSKNSKRSEKVKPGDKISLEFIPKI | -0.0442
32 | HMSEEVKSQPISILDLSTRASNGLKNEGIETIGELVKYSEDELLGLDKFGQNSLKEIKKKLEEIGLTLKEH | 0.00703
33 | HMSEFLTIVRAVYSGLSRRKVAAMHKVSRNTVSLYLRQARDQGWLTLEDLEKLDDLTVSQGVS | -2.08
34 | HMSEFVIPLAKYNKALYTQVSLGMRFRMLFETEDSGVRRYMGTITGIGDLDPIRWKNSHWRNLQV | 0.191
35 | HMSEHLTLVVSDEDAGHRVDQFLVSRLAHMTRSQIQKLIKDGQVTIDTKLVRASTTVHTDNIVTIEFPPAV | -1.21
36 | HMSEKLTLEAANEAAGMRIDKWLAMQLPELSRSRIEALISGGGVVVNGKNPSKSLKLKGGEQIELEIPE | -0.0607
37 | HMSELLIVGSEQDNTRLDRFLADQYEEYTRSFLQKLIDQGNVSINGISVKKSGIKLKENDEIAVTLPEPQ | 0.646
38 | HMSELPLTQKVAIVMVALGEEASGEVMKHLSDYEIEEITQAIAGLKNISVELMDQILEEYEQHLIAG | -0.515
39 | HMSELTKEIGKRIHDFRKSRGLNQEELARLIYKSKATLSKYEKGEIAIDLDTLKQLALALHVRMEQLLPPT | -1.5
40 | HMSENDTILAKFVSVMGNKNLELVIFPDIAYLKGQVSNPEDKTKAETVAQSLLGGKPLVSLIEFE | -0.332
41 | HMSENIQLQKEQLYQLIAQLPEQRQKIFRLHKIDNYSYQEISDFTGLSRKTIANHIYLAHQFILKKVKK | -3.76
42 | HMSENKIMEIVQDLAREKSVILISHRLANVTAADKILYMEQGKIAESGTHEQLMAQNKAYAALFNKQQEL | -0.0206
43 | HMSENLESEFFGIVVITQTLLQKELRDKPMTVELIRKTVEDVMSKHYSDSSVDKAKVEEELIRRFSTW | -1.32
44 | HMSENMSQDLAQWYRLQQALHPNLDAPELWATDLTSQQRTVRDQLIQQWAQEKRDSLWSEISGD | -0.0639
45 | HMSEPFDMAVPLTSGGRRLDQVLAELLPQHSRNRLQGWIRDGLLTLDGVTVTEPKRKLAGGEQLALLLP | -0.169
46 | HMSEPTLESLRAEGAHHYDPARFHYLEVLARRMPGQHAAVQQVLASRLREAVAAYAGRRSLI | -0.157
47 | HMSEQSEALRTGLDQLPINQRTALTLFHLHELNQSEVAKIMNISVGAVESLLFRGRQKMKQLLTSD | -1.39
48 | HMSERIITFGEATREAMLEEMRADERVFVYGEDIAKQGGIFGQFAGMKDEFPERVLDTPISETALVGAG | 0.157
49 | HMSERVVVPDLTGKDLVAAQSELREISLAGREEGPGDKVRRQFPVAGVKVPKDTVVILYTED | 0.0278
50 | HMSESAGKALDILFYLARVEDEVSLARLSKETGMNKATALRYLAVLESWGVVEKRPSGWSLGLSLFELGSK | -2.05
51 | HMSESGTFRAEAADAGRRLDVALAERLRLSRAAAQRLIAAGLVLVEGSPARKRQILHAGETVAWRAAPP | -1.03
52 | HMSESLLTAAGFKTIAATTPEQKRHLEWLHPDQVTAVQLTGQHYYVYPDVAKSQLFVGTPKEYQAYLALRT | -0.16
53 | HMSESLRDLVLSLIPEDGSTIGNRALITRLREDLPDLTDEDYHEVRDQLIAEGVLAKGRGQGGSVARANG | 0.311
54 | HMSETIVFGQQKAINTLSSEAGLSSAELNNYLKKRYQRPLFQLTVSEGADLIQGFQDGTLTKASITQYVSQ | -0.0878
55 | HMSETQDQTTIEIEDMITVGTLAERLSIPVSTLIGELMKNGVMATVNEKIDFDTAQIIVGELKLPIELSKK | 0.0487
